For this assay, the target named is cynomolgus Ang2 (cynomolgus). Briefly: competition ELISA: cAng2 binding to cTie2.

B1: 00050 (VHH)
VHH: EVQLVESGGGLVQPGGSLRLSCAASGFTFDDYALGWFRQAPGKEREGVSCIRCSDGSTYYADSVKGRFTISSDNSKNTVYLQMNSLRPEDTAVYYCAASIVPRSKLEPYEYDAWGQGTLVTVSS
In turn, B1 showed an IC50 (read off the curve) of 10 nM.
